This passage reports Ki results from patent US20260015399A1 (Boehringer Ingelheim, published 2026).

*1 amine or outer side, *2 acyl side, *3 side chain or, on linkers, in order; H or OH if unused. Side-chain parts run from the residue outwards. The star is where a group is joined. C18 diacid = O=C(O)CCCCCCCCCCCCCCCCC(=O)*; γGlu = O=C(O)[C@H](CCC(=O)[*:2])N[*:1]; Isovaleryl = CC(C)CC(=O)*; Ahx = NCCCCCC(=O)O

The assay has as its target T1, human NPY2 receptor (human, UniProt P49146 1-381).
T1 construct: whole, on cells; also called hNPY2-R; hNPY2R
T1 sequence (looked up): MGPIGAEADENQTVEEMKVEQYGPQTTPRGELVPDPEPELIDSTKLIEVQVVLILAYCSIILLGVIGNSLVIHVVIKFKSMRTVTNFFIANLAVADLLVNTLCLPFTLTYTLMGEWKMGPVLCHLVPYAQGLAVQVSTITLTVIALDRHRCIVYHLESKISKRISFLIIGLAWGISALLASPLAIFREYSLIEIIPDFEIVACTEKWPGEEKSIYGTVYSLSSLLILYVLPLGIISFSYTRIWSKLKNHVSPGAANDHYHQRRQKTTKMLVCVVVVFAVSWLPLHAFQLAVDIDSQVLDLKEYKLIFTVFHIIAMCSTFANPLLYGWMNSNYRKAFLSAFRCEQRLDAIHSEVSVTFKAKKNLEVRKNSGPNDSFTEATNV
The experiment in a line: RLB: displacement of 125I-PYY(1-36) from hNPY2R membranes. (In general: Loss of bound radioactivity is the signal in a displacement assay; it reports binding, not function.)

B1: Compound 69 (peptide)
peptide: Isovaleryl-APEK([Ahx-γGlu-C18 diacid])PPADASPEETQRYYVSLRHYYNWLTRQRY-NH2
SMILES: CC(C)CC(=O)N[C@@H](C)C(=O)N1CCC[C@H]1C(=O)N[C@@H](CCC(=O)O)C(=O)N[C@@H](CCCCNC(=O)CCCCCNC(=O)CC[C@H](NC(=O)CCCCCCCCCCCCCCCCC(=O)O)C(=O)O)C(=O)N1CCC[C@H]1C(=O)N1CCC[C@H]1C(=O)N[C@@H](C)C(=O)N[C@@H](CC(=O)O)C(=O)N[C@@H](C)C(=O)N[C@@H](CO)C(=O)N1CCC[C@H]1C(=O)N[C@@H](CCC(=O)O)C(=O)N[C@@H](CCC(=O)O)C(=O)N[C@H](C(=O)N[C@@H](CCC(N)=O)C(=O)N[C@@H](CCCNC(=N)N)C(=O)N[C@@H](Cc1ccc(O)cc1)C(=O)N[C@@H](Cc1ccc(O)cc1)C(=O)N[C@H](C(=O)N[C@@H](CO)C(=O)N[C@@H](CC(C)C)C(=O)N[C@@H](CCCNC(=N)N)C(=O)N[C@@H](Cc1c[nH]cn1)C(=O)N[C@@H](Cc1ccc(O)cc1)C(=O)N[C@@H](Cc1ccc(O)cc1)C(=O)N[C@@H](CC(N)=O)C(=O)N[C@@H](Cc1c[nH]c2ccccc12)C(=O)N[C@@H](CC(C)C)C(=O)N[C@H](C(=O)N[C@@H](CCCNC(=N)N)C(=O)N[C@@H](CCC(N)=O)C(=O)N[C@@H](CCCNC(=N)N)C(=O)N[C@@H](Cc1ccc(O)cc1)C(N)=O)[C@@H](C)O)C(C)C)[C@@H](C)O
By Ki is commonly meant the dissociation constant of the complex between target and ligand, obtained from inhibition or displacement. In the case of B1, affinity was put at a Ki of 0.54 nM.

B2: Compound 81 (peptide)
peptide: Isovaleryl-APEK([Ahx-γGlu-C18 diacid])PEEDAQPEEIQRYYVSLRHYYNWLTRQRY-NH2
SMILES: CC[C@H](C)[C@H](NC(=O)[C@H](CCC(=O)O)NC(=O)[C@H](CCC(=O)O)NC(=O)[C@@H]1CCCN1C(=O)[C@H](CCC(N)=O)NC(=O)[C@H](C)NC(=O)[C@H](CC(=O)O)NC(=O)[C@H](CCC(=O)O)NC(=O)[C@H](CCC(=O)O)NC(=O)[C@@H]1CCCN1C(=O)[C@H](CCCCNC(=O)CCCCCNC(=O)CC[C@H](NC(=O)CCCCCCCCCCCCCCCCC(=O)O)C(=O)O)NC(=O)[C@H](CCC(=O)O)NC(=O)[C@@H]1CCCN1C(=O)[C@H](C)NC(=O)CC(C)C)C(=O)N[C@@H](CCC(N)=O)C(=O)N[C@@H](CCCNC(=N)N)C(=O)N[C@@H](Cc1ccc(O)cc1)C(=O)N[C@@H](Cc1ccc(O)cc1)C(=O)N[C@H](C(=O)N[C@@H](CO)C(=O)N[C@@H](CC(C)C)C(=O)N[C@@H](CCCNC(=N)N)C(=O)N[C@@H](Cc1c[nH]cn1)C(=O)N[C@@H](Cc1ccc(O)cc1)C(=O)N[C@@H](Cc1ccc(O)cc1)C(=O)N[C@@H](CC(N)=O)C(=O)N[C@@H](Cc1c[nH]c2ccccc12)C(=O)N[C@@H](CC(C)C)C(=O)N[C@H](C(=O)N[C@@H](CCCNC(=N)N)C(=O)N[C@@H](CCC(N)=O)C(=O)N[C@@H](CCCNC(=N)N)C(=O)N[C@@H](Cc1ccc(O)cc1)C(N)=O)[C@@H](C)O)C(C)C
For the molecule B2, the Ki worked out at 2.65 nM.

B3: Compound 78 (peptide)
peptide: Isovaleryl-APAK([Ahx-γGlu-C18 diacid])PEEDASPEELQRYYVSLRHYYQWLTRQRY-NH2
SMILES: CC(C)CC(=O)N[C@@H](C)C(=O)N1CCC[C@H]1C(=O)N[C@@H](C)C(=O)N[C@@H](CCCCNC(=O)CCCCCNC(=O)CC[C@H](NC(=O)CCCCCCCCCCCCCCCCC(=O)O)C(=O)O)C(=O)N1CCC[C@H]1C(=O)N[C@@H](CCC(=O)O)C(=O)N[C@@H](CCC(=O)O)C(=O)N[C@@H](CC(=O)O)C(=O)N[C@@H](C)C(=O)N[C@@H](CO)C(=O)N1CCC[C@H]1C(=O)N[C@@H](CCC(=O)O)C(=O)N[C@@H](CCC(=O)O)C(=O)N[C@@H](CC(C)C)C(=O)N[C@@H](CCC(N)=O)C(=O)N[C@@H](CCCNC(=N)N)C(=O)N[C@@H](Cc1ccc(O)cc1)C(=O)N[C@@H](Cc1ccc(O)cc1)C(=O)N[C@H](C(=O)N[C@@H](CO)C(=O)N[C@@H](CC(C)C)C(=O)N[C@@H](CCCNC(=N)N)C(=O)N[C@@H](Cc1c[nH]cn1)C(=O)N[C@@H](Cc1ccc(O)cc1)C(=O)N[C@@H](Cc1ccc(O)cc1)C(=O)N[C@@H](CCC(N)=O)C(=O)N[C@@H](Cc1c[nH]c2ccccc12)C(=O)N[C@@H](CC(C)C)C(=O)N[C@H](C(=O)N[C@@H](CCCNC(=N)N)C(=O)N[C@@H](CCC(N)=O)C(=O)N[C@@H](CCCNC(=N)N)C(=O)N[C@@H](Cc1ccc(O)cc1)C(N)=O)[C@@H](C)O)C(C)C
As to B3, the affinity, expressed as Ki, was 1.8 nM.

B4: Compound 77 (peptide)
peptide: Isovaleryl-APAK([Ahx-γGlu-C18 diacid])PEEDASPEELQRYYVSLRHYQNWLTRQRY-NH2
SMILES: CC(C)CC(=O)N[C@@H](C)C(=O)N1CCC[C@H]1C(=O)N[C@@H](C)C(=O)N[C@@H](CCCCNC(=O)CCCCCNC(=O)CC[C@H](NC(=O)CCCCCCCCCCCCCCCCC(=O)O)C(=O)O)C(=O)N1CCC[C@H]1C(=O)N[C@@H](CCC(=O)O)C(=O)N[C@@H](CCC(=O)O)C(=O)N[C@@H](CC(=O)O)C(=O)N[C@@H](C)C(=O)N[C@@H](CO)C(=O)N1CCC[C@H]1C(=O)N[C@@H](CCC(=O)O)C(=O)N[C@@H](CCC(=O)O)C(=O)N[C@@H](CC(C)C)C(=O)N[C@@H](CCC(N)=O)C(=O)N[C@@H](CCCNC(=N)N)C(=O)N[C@@H](Cc1ccc(O)cc1)C(=O)N[C@@H](Cc1ccc(O)cc1)C(=O)N[C@H](C(=O)N[C@@H](CO)C(=O)N[C@@H](CC(C)C)C(=O)N[C@@H](CCCNC(=N)N)C(=O)N[C@@H](Cc1c[nH]cn1)C(=O)N[C@@H](Cc1ccc(O)cc1)C(=O)N[C@@H](CCC(N)=O)C(=O)N[C@@H](CC(N)=O)C(=O)N[C@@H](Cc1c[nH]c2ccccc12)C(=O)N[C@@H](CC(C)C)C(=O)N[C@H](C(=O)N[C@@H](CCCNC(=N)N)C(=O)N[C@@H](CCC(N)=O)C(=O)N[C@@H](CCCNC(=N)N)C(=O)N[C@@H](Cc1ccc(O)cc1)C(N)=O)[C@@H](C)O)C(C)C
With B4, the affinity, expressed as Ki, was 9.73 nM.

B5: Compound 80 (peptide)
peptide: Isovaleryl-APEK([Ahx-γGlu-C18 diacid])PEEDASEAELQRYYVSLRHYYNWLTRQRY-NH2
SMILES: CC(C)CC(=O)N[C@@H](C)C(=O)N1CCC[C@H]1C(=O)N[C@@H](CCC(=O)O)C(=O)N[C@@H](CCCCNC(=O)CCCCCNC(=O)CC[C@H](NC(=O)CCCCCCCCCCCCCCCCC(=O)O)C(=O)O)C(=O)N1CCC[C@H]1C(=O)N[C@@H](CCC(=O)O)C(=O)N[C@@H](CCC(=O)O)C(=O)N[C@@H](CC(=O)O)C(=O)N[C@@H](C)C(=O)N[C@@H](CO)C(=O)N[C@@H](CCC(=O)O)C(=O)N[C@@H](C)C(=O)N[C@@H](CCC(=O)O)C(=O)N[C@@H](CC(C)C)C(=O)N[C@@H](CCC(N)=O)C(=O)N[C@@H](CCCNC(=N)N)C(=O)N[C@@H](Cc1ccc(O)cc1)C(=O)N[C@@H](Cc1ccc(O)cc1)C(=O)N[C@H](C(=O)N[C@@H](CO)C(=O)N[C@@H](CC(C)C)C(=O)N[C@@H](CCCNC(=N)N)C(=O)N[C@@H](Cc1c[nH]cn1)C(=O)N[C@@H](Cc1ccc(O)cc1)C(=O)N[C@@H](Cc1ccc(O)cc1)C(=O)N[C@@H](CC(N)=O)C(=O)N[C@@H](Cc1c[nH]c2ccccc12)C(=O)N[C@@H](CC(C)C)C(=O)N[C@H](C(=O)N[C@@H](CCCNC(=N)N)C(=O)N[C@@H](CCC(N)=O)C(=O)N[C@@H](CCCNC(=N)N)C(=O)N[C@@H](Cc1ccc(O)cc1)C(N)=O)[C@@H](C)O)C(C)C
On to B5, for which the Ki turned out to be 4.62 nM.

B6: Compound 73 (peptide)
peptide: Isovaleryl-APEK([Ahx-γGlu-C18 diacid])PEEAASPEELQRYYVALRHYYNWLTRQRY-NH2
SMILES: CC(C)CC(=O)N[C@@H](C)C(=O)N1CCC[C@H]1C(=O)N[C@@H](CCC(=O)O)C(=O)N[C@@H](CCCCNC(=O)CCCCCNC(=O)CC[C@H](NC(=O)CCCCCCCCCCCCCCCCC(=O)O)C(=O)O)C(=O)N1CCC[C@H]1C(=O)N[C@@H](CCC(=O)O)C(=O)N[C@@H](CCC(=O)O)C(=O)N[C@@H](C)C(=O)N[C@@H](C)C(=O)N[C@@H](CO)C(=O)N1CCC[C@H]1C(=O)N[C@@H](CCC(=O)O)C(=O)N[C@@H](CCC(=O)O)C(=O)N[C@@H](CC(C)C)C(=O)N[C@@H](CCC(N)=O)C(=O)N[C@@H](CCCNC(=N)N)C(=O)N[C@@H](Cc1ccc(O)cc1)C(=O)N[C@@H](Cc1ccc(O)cc1)C(=O)N[C@H](C(=O)N[C@@H](C)C(=O)N[C@@H](CC(C)C)C(=O)N[C@@H](CCCNC(=N)N)C(=O)N[C@@H](Cc1c[nH]cn1)C(=O)N[C@@H](Cc1ccc(O)cc1)C(=O)N[C@@H](Cc1ccc(O)cc1)C(=O)N[C@@H](CC(N)=O)C(=O)N[C@@H](Cc1c[nH]c2ccccc12)C(=O)N[C@@H](CC(C)C)C(=O)N[C@H](C(=O)N[C@@H](CCCNC(=N)N)C(=O)N[C@@H](CCC(N)=O)C(=O)N[C@@H](CCCNC(=N)N)C(=O)N[C@@H](Cc1ccc(O)cc1)C(N)=O)[C@@H](C)O)C(C)C
B6: the inhibitory constant (Ki) was determined as 2.16 nM.
